Measured values from patent EP3088890B1 (Chugai Seiyaku Kabushiki Kaisha, dated 2020).

How the values were obtained:
[1] = molecular target: GPC3 core (sGPC3-His) protein (human) (UniProt P51654); experiment: competition ELISA on plate-bound sGPC3; unlabeled GT114 (100-fold) against competitor biotin-labeled GT607
[2] = molecular target: GPC3 core (sGPC3-His) protein (human) (UniProt P51654); experiment: ELISA on plate-bound sGPC3; biotin-labeled GT114, no unlabeled antibody
[3] = molecular target: GPC3 core (sGPC3-His) protein (human) (UniProt P51654); experiment: competition ELISA on plate-bound sGPC3; unlabeled GT114 (100-fold) against competitor biotin-labeled GT30
[4] = molecular target: T1, AW5, C-terminally His-tagged recombinant product of positions 1 to 357 of GPC3 (human, UniProt P51654 25-357); experiment: Western blot analysis, CHO cell pellets
T1 construct: Expressed in CHO cells, cell pellets used in Western blot; The range is as printed and starts at position 1; also called AW5 (1-357); not shown: C-terminal His tag

[5] = molecular target: GPC3 core (sGPC3-His) protein (human) (UniProt P51654); experiment: competition ELISA on plate-bound sGPC3; unlabeled GT114 (100-fold) against competitor biotin-labeled GT114; signal of the labeled antibody
[6] = molecular target: GPC3 core (sGPC3-His) protein (human) (UniProt P51654); experiment: competition ELISA on plate-bound sGPC3; unlabeled GT114 (100-fold) against competitor biotin-labeled GT30; signal of the labeled antibody
[7] = molecular target: GPC3 core (sGPC3-His) protein (human) (UniProt P51654); experiment: competition ELISA on plate-bound sGPC3; unlabeled GT114 (100-fold) against competitor biotin-labeled GT607; signal of the labeled antibody
[8] = molecular target: T2, AW2, C-terminally His-tagged recombinant product of positions 1 to 196 of GPC3 (human, UniProt P51654 25-196); experiment: Western blot, pellets of CHO cells expressing the product
T2 construct: Expressed in CHO cells, cell pellets used in Western blot; The range is as printed and starts at position 1; also called AW2 (1-196); not shown: C-terminal His tag

[9] = molecular target: GPC3 core (sGPC3-His) protein (human) (UniProt P51654); experiment: competition ELISA on plate-bound sGPC3; unlabeled GT114 (100-fold) against competitor biotin-labeled GT165
[10] = molecular target: GPC3 core (sGPC3-His) protein (human) (UniProt P51654); experiment: competition ELISA on plate-bound sGPC3; unlabeled GT114 (100-fold) against competitor biotin-labeled GT165; signal of the labeled antibody
[11] = molecular target: GPC3 core (sGPC3-His) protein (human) (UniProt P51654); experiment: competition ELISA on plate-bound sGPC3; unlabeled GT114 (100-fold) against competitor biotin-labeled GT114
[12] = molecular target: GPC3 core (sGPC3-His) protein (human) (UniProt P51654); experiment: competition ELISA on plate-bound sGPC3; unlabeled GT607 (100-fold) against competitor biotin-labeled GT607; signal of the labeled antibody
[13] = molecular target: GPC3 core (sGPC3-His) protein (human) (UniProt P51654); experiment: competition ELISA on plate-bound sGPC3; unlabeled GT607 (100-fold) against competitor biotin-labeled GT30
[14] = molecular target: GPC3 core (sGPC3-His) protein (human) (UniProt P51654); experiment: competition ELISA on plate-bound sGPC3; unlabeled GT607 (100-fold) against competitor biotin-labeled GT114
[15] = molecular target: GPC3 core (sGPC3-His) protein (human) (UniProt P51654); experiment: competition ELISA on plate-bound sGPC3; unlabeled GT607 (100-fold) against competitor biotin-labeled GT165; signal of the labeled antibody
[16] = molecular target: GPC3 core (sGPC3-His) protein (human) (UniProt P51654); experiment: competition ELISA on plate-bound sGPC3; unlabeled GT607 (100-fold) against competitor biotin-labeled GT30; signal of the labeled antibody
[17] = molecular target: GPC3 core (sGPC3-His) protein (human) (UniProt P51654); experiment: ELISA on plate-bound sGPC3; biotin-labeled GT607, no unlabeled antibody
[18] = molecular target: GPC3 core (sGPC3-His) protein (human) (UniProt P51654); experiment: competition ELISA on plate-bound sGPC3; unlabeled GT607 (100-fold) against competitor biotin-labeled GT165
[19] = molecular target: GPC3 core (sGPC3-His) protein (human) (UniProt P51654); experiment: competition ELISA on plate-bound sGPC3; unlabeled GT165 (100-fold) against competitor biotin-labeled GT165; signal of the labeled antibody
[20] = molecular target: GPC3 core (sGPC3-His) protein (human) (UniProt P51654); experiment: competition ELISA on plate-bound sGPC3; unlabeled GT165 (100-fold) against competitor biotin-labeled GT114
[21] = molecular target: GPC3 core (sGPC3-His) protein (human) (UniProt P51654); experiment: ELISA on plate-bound sGPC3; biotin-labeled GT165, no unlabeled antibody
[22] = molecular target: GPC3 core (sGPC3-His) protein (human) (UniProt P51654); experiment: competition ELISA on plate-bound sGPC3; unlabeled GT165 (100-fold) against competitor biotin-labeled GT30; signal of the labeled antibody
[23] = molecular target: GPC3 core (sGPC3-His) protein (human) (UniProt P51654); experiment: competition ELISA on plate-bound sGPC3; unlabeled GT165 (100-fold) against competitor biotin-labeled GT165
[24] = molecular target: T1, AW5, C-terminally His-tagged …; experiment: Western blot, pellets of CHO cells expressing the product
[25] = molecular target: GPC3 core (sGPC3-His) protein (human) (UniProt P51654); experiment: competition ELISA on plate-bound sGPC3; unlabeled GT165 (100-fold) against competitor biotin-labeled GT607
[26] = molecular target: GPC3 core (sGPC3-His) protein (human) (UniProt P51654); experiment: competition ELISA on plate-bound sGPC3; unlabeled GT165 (100-fold) against competitor biotin-labeled GT30

Chain of GPC3 core (sGPC3-His) protein (human) (P51654 25-563 S495A/S509A): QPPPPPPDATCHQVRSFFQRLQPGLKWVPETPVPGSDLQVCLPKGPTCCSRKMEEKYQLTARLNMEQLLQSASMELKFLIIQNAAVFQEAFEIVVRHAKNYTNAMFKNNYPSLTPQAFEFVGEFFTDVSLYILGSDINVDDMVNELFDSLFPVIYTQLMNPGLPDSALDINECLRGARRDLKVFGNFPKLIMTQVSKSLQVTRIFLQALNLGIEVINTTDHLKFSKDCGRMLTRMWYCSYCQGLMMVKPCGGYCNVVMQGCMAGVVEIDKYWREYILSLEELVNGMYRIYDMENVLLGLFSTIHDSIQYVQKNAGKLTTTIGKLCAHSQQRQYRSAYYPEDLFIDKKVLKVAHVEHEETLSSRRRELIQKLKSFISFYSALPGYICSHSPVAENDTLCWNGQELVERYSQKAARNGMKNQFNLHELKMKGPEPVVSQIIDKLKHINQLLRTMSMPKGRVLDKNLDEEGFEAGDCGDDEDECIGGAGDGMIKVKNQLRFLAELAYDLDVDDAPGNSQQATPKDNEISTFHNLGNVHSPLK
T2 sequence (P51654 25-196): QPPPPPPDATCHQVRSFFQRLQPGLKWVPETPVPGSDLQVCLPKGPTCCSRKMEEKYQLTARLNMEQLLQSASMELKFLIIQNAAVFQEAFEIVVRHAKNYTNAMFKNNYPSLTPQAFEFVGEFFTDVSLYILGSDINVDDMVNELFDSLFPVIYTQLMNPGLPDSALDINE
T1 sequence (P51654 25-357): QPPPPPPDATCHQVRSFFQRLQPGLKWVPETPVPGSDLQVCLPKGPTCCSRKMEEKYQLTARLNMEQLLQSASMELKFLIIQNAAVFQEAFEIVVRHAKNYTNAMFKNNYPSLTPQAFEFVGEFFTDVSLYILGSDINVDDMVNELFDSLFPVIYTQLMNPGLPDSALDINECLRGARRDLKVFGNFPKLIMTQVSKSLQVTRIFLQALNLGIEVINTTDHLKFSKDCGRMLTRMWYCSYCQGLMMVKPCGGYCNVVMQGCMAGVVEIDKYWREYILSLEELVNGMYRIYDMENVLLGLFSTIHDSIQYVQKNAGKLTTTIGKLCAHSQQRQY

B1: GT114 antibody (antibody, IgG1, V domains shown)
VH: DVQLQESGPGLVKPSQSLSLTCTVTGYSITSDSAWNWIRQFPGNKLEWMAYIMYSGITSYNPSLKSRISITRDTAKNQFFLQLNSVTTEDSATYYCSRGYWYFDVWGAGTTVTVSS
VL: QIVLTQSPAIMSASLGEEITLTCSASSSVSYMHWYQQKSGTSPKLLIYSTSILASGVPSRFSGSGSGTFYSLTISSVEAEDAADYYCLQWITYRTFGGGTKLEIKR
**Q.** For B1, which Inhibitory effect (%) [1] is on record?
**A.** 86%

**Q.** What about the O.D. 450 [2] of the same binder?
**A.** 2.3 O.D. 450

**Q.** And the Inhibitory effect (%) [3]?
**A.** < 0%

**Q.** Does B1 bind [4]?
**A.** binds

**Q.** What about the O.D. 450 [5] of the same binder?
**A.** 0.251 O.D. 450

**Q.** What about the O.D. 450 [6] of the same binder?
**A.** 2.14 O.D. 450

**Q.** What about the O.D. 450 [7] of the same binder?
**A.** 0.307 O.D. 450

**Q.** Does B1 bind [8]?
**A.** no binding

**Q.** And the Inhibitory effect (%) [9]?
**A.** < 0%

**Q.** And the O.D. 450 [10]?
**A.** 1.82 O.D. 450

**Q.** And the Inhibitory effect (%) [11]?
**A.** 89%

B2: GT607 antibody (antibody, IgG1, V domains shown)
VH: EVQLVESGGDVVRPGGSLKLSCAASGFTFSSYGMSWVRQLPDKRLEWVASVGNGGSYRYYPENLKGRFTISRDNTKNTLYLQISGLKSEDTAIYYCARRGAFPYFDVWGAGTTVTVSS
VL: QIVLTQSPAIMSASPGEKVTLACSASSSVTYMHWYQQKSGTSPKRWIYETSKLASGVPPRFSGSGSGTSYSLTISTMEAEDAATYYCQQWSSNPLTFGAGTKLELKR
**Q.** B2 was tested. Which O.D. 450 [12] did it give?
**A.** 0.135 O.D. 450

**Q.** Does B2 bind [4]?
**A.** binds

**Q.** And the Inhibitory effect (%) [13]?
**A.** < 0%

**Q.** What about the Inhibitory effect (%) [14] of the same binder?
**A.** 51%

**Q.** And the O.D. 450 [15]?
**A.** 0.129 O.D. 450

**Q.** What about the O.D. 450 [16] of the same binder?
**A.** 2.06 O.D. 450

**Q.** Does B2 bind [8]?
**A.** no binding

**Q.** What about the O.D. 450 [17] of the same binder?
**A.** 2.18 O.D. 450

**Q.** And the Inhibitory effect (%) [18]?
**A.** 92%

B3: GT165 antibody (antibody, IgG1, V domains shown)
VH: QVQLQQSGAELVGPGASVKISCKAFGYTFTNHHINWVKQRPGQGLDWIGYINPYNDYTNYNQKFKGKATLTVDKSSSTAYMELSSLTSEDSAVYYCARSDPAWFAYWGQGTLVTVSA
VL: DIQMTQSPSSLSASLGGKVTITCKASQDINKNIAWYQHKPGKGPRLLIWYTYTLQPGIPSRFSGSGSGRDYSFSISNLEPEDIATYYCLQYDNLPFTFGTGTKLEIKR
**Q.** B3 was tested. Which O.D. 450 [19] did it give?
**A.** 0.111 O.D. 450

**Q.** What about the Inhibitory effect (%) [20] of the same binder?
**A.** 1%

**Q.** What about the O.D. 450 [21] of the same binder?
**A.** 1.68 O.D. 450

**Q.** And the O.D. 450 [22]?
**A.** 0.846 O.D. 450

**Q.** And the Inhibitory effect (%) [23]?
**A.** 93%

**Q.** Does B3 bind [8]?
**A.** no binding

**Q.** Does B3 bind [24]?
**A.** no binding

**Q.** And the Inhibitory effect (%) [25]?
**A.** 43%

**Q.** And the Inhibitory effect (%) [26]?
**A.** 54%
